Experimental findings from patent publication US20250263490A1 (VIB VZW, published 2025) are described below.

Sequences and labels used below:
B1: anti-CI-M6PR VHH6 (VHH)
VHH: QVQLQESGGGLVQAGGSLRLSCAVSGSISSIGGMGWFRQAPGKQREFVAVILNNSGMTSYADSVKGRFTISRGNSKNTMYLQMNSLKPEDTAVYYCNYSGYWGQGTQVTVSS
notes: His6-tagged; made in E. coli
B2: anti-CI-M6PR VHH5 (VHH)
VHH: QVQLQESGGGLVQAGGSLKLSCAAAGRTFSRLAMGWFRQAPGKEREFVAAISENGDSIHYSDSVKGRFAVSRDNAKNTVYLQMNSLKPEDTAIYYCAADRAAYYCSGSGCYPSRAPAAASYDYWGQGTQVTVSS
notes: His6-tagged; made in Pichia pastoris, later also in E. coli WK6
B3: anti-CI-M6PR VHH1 (VHH)
VHH: QVQLQESGGGLVQPGGSLRLSCVASGFTFDRYWMNWLRQIPGKEIEWVSTINTGGTGTYYDDSVKGRFSISRDDAKNTLYLTMNSLKTEDTAVYYCARGATYYRGNSAIRGQGTQVTVSS
notes: as for B2
B4: anti-CI-M6PR VHH3 (VHH)
VHH: QVQLQESGGGLVQPGGSLRLSCAAFGLNFKNFDMIWFRQAPGEERDIVAAISSSSSTIWYEDSVKGRFTISRDNAKNTVYLQMNSLKPEDTAVYYCAAALTSWRRPDYWGQGTQVTVSS
notes: His6-tagged; made in Pichia pastoris
B5: anti-CI-M6PR VHH8 (VHH)
VHH: QVQLQESGGGLVQAGGSLRLSCEASGRTFNTYNWGWFRQAPGKEREFVAAIRWSSSKTSYADSVKGRFTISRDNAKNTIYLQMNSLKPEDTAVYYCAASIVDFTTNPSHFGSWGQGTQVTVSS
notes: His6-tagged (Pichia pastoris)
B6: anti-CI-M6PR VHH7 (VHH)
VHH: QVQLQESGGGLVQPGGSLRLSCAASGIIFSDNRMDWYRQAPGKQREWVATLASYGWKTYADSVKGRFTISRDNTKNTVYLRMNSLKPEDTAVYYCKASSPVLNDIWGQGTQVTVSS
notes: His6-tagged (Pichia pastoris)
B7: anti-CI-M6PR VHH4 (VHH)
VHH: QVQLQESGGGLVQAGGSLRLSCAASGRTFSNYVMGWFRQAPGKEREFVGSISQGGKMTYYPDSVKGRFTISRDNAKNTMYLQMDGLKPEDTAVYYCAVSRGYPMVRVSEVDYWGQGTQVTVSS
notes: as for B4

The target in the first assay is T1, recombinant human domain 1-3His6 of the cation-independent mannose-6-phosphate receptor (human, UniProt P11717 41-467).
T1 construct: Biotinylated (NHS-PEG4-biotin) for BLI; Glycosylated; also called hDom1-3His6; hCI-M6PRD1-D3
The assay can be described thus: BLI at pH 7.4, 1st of 2 repeats. How it is done: (§1) For each of the 11 anti-CI-M6PR VHHs, a biolayer interferometry (BLI) experiment was performed in which the hDom₁₋₃His₆ was biotinylated and coupled to streptavidin biosensor tips. Afterwards, the tips were incubated with serially diluted VHHs during the association phase and dissociation was performed at pH 7.4. Similarly, dissociation was performed at pH 7.0, pH 6.0 and pH 5.0 as well after regeneration of the biosensor tips. […] The anti-CI-M6PR antibody (clone 2G11) and GBP were used as positive and negative controls, respectively.
(§2) Analysis of the binding kinetics was performed using an Octet Red96 (FortéBio) device with Streptavidin SA Biosensor tips (VWR 733-2145). Therefore, 1 mL of human domain₁₋₃His₆ (0.5 mg/mL in 50 mM MES, 150 mM NaCl, pH 6.5) was incubated at room temperature for 30 minutes with EZ-Link™ NHS-PEG4-Biotin (1 mg) (Thermo Fischer A39259) and NaHCO₃ (100 mM). Biotinylated human domain₁₋₃His₆ was purified using a Zeba spin desalting Column™ (7K MWCO, 2 mL, Thermo Fischer 89890) and 1 μg/mL was used for immobilization on the Streptavidin SA Biosensor tips. The loaded tips were dipped into a particular anti-CI-M6PR VHH solution, serially diluted in kinetics buffer (0.2M NaH₂PO₄, 0.1M Na⁺ citrate, 0.01% BSA, 0.002% Tween20, pH 7.4). This was followed by dissociation of the particular anti-CI-M6PR VHH in kinetics buffer of pH 7.4, followed by regeneration in Glycine (10 mM, pH 3) and neutralisation. Same cycle was repeated but the dissociation was performed at pH 7.0, 6.0, 5.0, 4.5 and 4.0. A reference well and reference sensors were subtracted from ligand sensors afterwards and Savitsky-Golay filtering was applied on the data. Fitting of the data was performed using a 1:1 model, grouped per pH of dissociation.
Turning to B1, the Kd was 3.35 nM, the koff is 0.00352 s⁻¹ and the on-rate constant (kon) stood at 1.05e+06 M⁻¹ s⁻¹.
The like results for B2 were, in that order, 0.0903 nM, 0.000124 s⁻¹ and 1.37e+06 M⁻¹ s⁻¹.
For B3 the same measures were 7.44 nM, ~0.00606 s⁻¹ and 814000 M⁻¹ s⁻¹.
With B4, the Kd was ≤ 0.000117 nM, the koff was ≤ 1e-07 s⁻¹ and the kon amounted to 853000 M⁻¹ s⁻¹.
With B5, the Kd amounted to 1.69 nM, the koff came to 0.000787 s⁻¹ and the kon was found to be 465000 M⁻¹ s⁻¹.
For B6 the same measures were 10.8 nM, 0.00999 s⁻¹ and 924000 M⁻¹ s⁻¹.

Another assay deals with T1, recombinant human domain 1-3His6 of the …. The assay can be described thus: ELISA on coated antigen, 1st of 2 repeats. How it is done: (§3) FIGS. 4A-4B. Affinity of anti-CI-M6PR VHHs for recombinant human CI-M6PR Domain 1-3His₆ determined by ELISA. A & B. Measurements for each of the 11 anti-CI-M6PR VHHs in serial dilution binding to the coated human CI-M6PR Domain 1-3His₆ antigen. Detection was performed using an anti-VHH antibody coupled to HRP, and measured as the absorbance of the TMB substrate at 450 nm, correlating to the amount of bound VHH as plotted at the Y-axis. The Log₁₀ concentrations of the serially diluted VHHs were plotted at the X-axis. […] A & B represent replicates but using a different concentration of human CI-M6PR Domain 1-3His₆ (in (FIG. 4A): 0-0.75 μM and in (FIG. 4B): 0-1 μM).
(§4) We evaluated the affinity of the VHHs against the hDom₁₋₃His₆ using ELISA. Coated hDom₁₋₃His₆ was incubated with serially diluted VHH that was afterwards detected using an anti-VHH antibody, coupled to HRP.
As to B1, the EC50 amounted to 84.2 nM.
On the same count and under the same terms, the figure for B2 is 0.0816 nM; for B3 it is 1.78 nM.
Still for that read-out and setting: the figure for B4 is 0.0379 nM.
On the same count and under the same terms, the figure for B5 is 0.11 nM; for B6 it is 0.0109 nM.

For another assay the target is unchanged. The assay can be described thus: BLI exp 1, dissoc pH 6. How it is done:
as §1, §2
With B1, the Kd was 1.56 nM, the koff stood at 0.00242 s⁻¹ and the kon is 1.55e+06 M⁻¹ s⁻¹.
The like results for B7 were, in that order, 3.18 nM, 0.00101 s⁻¹ and 316000 M⁻¹ s⁻¹.
The like results for B2 were, in that order, 0.0111 nM, 1.52e-05 s⁻¹ and 1.38e+06 M⁻¹ s⁻¹.
On to B3, for which the Kd amounted to 12.7 nM, the koff is ~0.0165 s⁻¹ and the kon was found to be 1.3e+06 M⁻¹ s⁻¹.
The like results for B4 were, in that order, 0.27 nM, 0.000851 s⁻¹ and 3.16e+06 M⁻¹ s⁻¹.
For B5 the same measures were 12.7 nM, 0.00293 s⁻¹ and 231000 M⁻¹ s⁻¹.
For B6 the same measures were 8.75 nM, 0.0321 s⁻¹ and 3.67e+06 M⁻¹ s⁻¹.

The target is the same in another assay. The assay can be described thus: BLI exp 2, dissoc pH 6. How it is done: as §1
Analysis of the binding kinetics was performed using an Octet Red96 (FortéBio) device with Streptavidin SA Biosensor tips (VWR, 733-2145). To this end, 1 mL of hCI-M6PR_D1-D3 (0.5 mg/mL in 50 mM MES, 150 mM NaCl, pH 6.5) was incubated at room temperature for 30 minutes with a two-fold molar excesses of EZ-Link™ NHS-PEG₄-Biotin (Thermo Fischer, A39259) and NaHCO₃ (100 mM, pH 8.3). Biotinylated hCIMPR_D1-D3 was purified using a Zeba spin desalting column (Thermo Fischer, 89890) and protein concentration was calculated by measuring the absorbance at 280 nm (extinction coefficient 50320 M¹ cm⁻¹). Two-fold biotin-labelled antigen was loaded on the tips (2.5 μg/mL) and subsequently dipped into a particular anti-CI-M6PR VHH-containing solution (ranging from 0-100 nM). Serial VHH dilutions were made in kinetics buffer (0.2 M Na₂HPO₄, 0.1 M Na⁺ citrate, 0.01% BSA, 0.002% Tween20, pH 7.4). After association (100 sec), dissociation was conducted (500 sec) for each anti-CI-M6PR VHH in the kinetics buffer, followed by biosensor regeneration in glycine (10 mM, pH 3) and neutralisation. The same cycle was repeated with dissociation performed in kinetics buffer of pH 7.0, 6.5, 6.0, 5.5, and 5.0.
A reference well and reference sensors were subtracted from ligand sensors afterwards and Savitsky-Golay filtering was applied on the data. Fitting of the data was performed using a 1:1 model, grouped per dissociation pH.
B1: the koff worked out at 0.00227 s⁻¹ and the kon was 718000 M⁻¹ s⁻¹.
For B7 the same measures were 0.00126 s⁻¹ and 572000 M⁻¹ s⁻¹.
The like results for B2 were, in that order, 0.00029 s⁻¹ and 1.7e+06 M⁻¹ s⁻¹.
For B3 the same measures were 0.021 s⁻¹ and 560000 M⁻¹ s⁻¹.
As to B4, the dissociation rate constant (koff) worked out at 0.000499 s⁻¹ and the kon was found to be 40600 M⁻¹ s⁻¹.
For B5 the same measures were 0.0012 s⁻¹ and 1.3e+08 M⁻¹ s⁻¹.
For B6 the same measures were 0.028 s⁻¹ and 40000 M⁻¹ s⁻¹.

The target is the same in a further assay. The assay can be described thus: BLI exp 1, dissoc pH 7. How it is done:
as §1, §2
B1: the Kd was found to be 2.65 nM, the koff amounted to 0.00227 s⁻¹ and the kon came to 856000 M⁻¹ s⁻¹.
For B7 the same measures were 2.2 nM, 0.00126 s⁻¹ and 572000 M⁻¹ s⁻¹.
The like results for B2 were, in that order, 0.346 nM, 0.000412 s⁻¹ and 1.19e+06 M⁻¹ s⁻¹.
The like results for B3 were, in that order, 6.05 nM, ~0.00756 s⁻¹ and 1.25e+06 M⁻¹ s⁻¹.
Turning to B4, the Kd was 0.269 nM, the koff was 0.000604 s⁻¹ and the kon is 2.24e+06 M⁻¹ s⁻¹.
For the molecule B5, the Kd stood at 6.45 nM, the koff was found to be 0.00368 s⁻¹ and the kon was determined as 570000 M⁻¹ s⁻¹.
Turning to B6, the Kd came out at 8.08 nM, the koff was found to be 0.00698 s⁻¹ and the kon was determined as 864000 M⁻¹ s⁻¹.

For the next assay the target is unchanged. The assay can be described thus: BLI exp 1, dissoc pH 5. How it is done:
as §1, §2
Turning to B1, the Kd is 8.5 nM, the off-rate (koff) is 0.0156 s⁻¹ and the kon was found to be 1.84e+06 M⁻¹ s⁻¹.
The like results for B7 were, in that order, 10 nM, 0.00729 s⁻¹ and 729000 M⁻¹ s⁻¹.
With B2, the Kd came to 5.76 nM, the koff amounted to 0.00861 s⁻¹ and the kon amounted to 1.5e+06 M⁻¹ s⁻¹.
The like results for B3 were, in that order, 24.7 nM, ~0.0988 s⁻¹ and 4e+06 M⁻¹ s⁻¹.
As for B4, the Kd is 1.36 nM, the koff came to 0.00149 s⁻¹ and the kon was 1.1e+06 M⁻¹ s⁻¹.
B5: the Kd amounted to 109 nM, the koff was 0.0328 s⁻¹ and the kon came to 302000 M⁻¹ s⁻¹.
For B6 the same measures were 11.7 nM, 0.0542 s⁻¹ and 4.62e+06 M⁻¹ s⁻¹.

The next assay shares this target. The assay can be described thus: ELISA on coated antigen, 2nd of 2 repeats. How it is done: as §3, §4
For orientation: ELISA stands for enzyme-linked immunosorbent assay.
Regarding B7, the EC50 was determined as 70.1 nM.
On the same count and under the same terms, the figure for B2 is 0.0647 nM; for B3 it is 19.4 nM.
Still for that read-out and setting: the figure for B4 is 0.104 nM.
On the same count and under the same terms, the figure for B5 is 0.165 nM.
In the case of B6, the EC50 was 1.19 nM.

In general, Kd refers to a measure of binding affinity in units of concentration. A word on the koff: it is a measure of how fast the partners let go of each other. A word on the kon: it is the second-order rate constant of association. Usually EC50 stands for the concentration giving half of the maximal effect.
